Like-named read-outs stand apart in the source and are kept apart here.
Assays:
[1] = tested on: Hela cells; assay: In vitro anti-tumor activity (CCK-8 killing) on Hela cells; type: cell-based; settings: Hela (TRAIL insensitive type), 32-1000 ng/mL, both low and high concentrations, 96 hours, FIG. 6
Source text: (§1) 4 types of cells were selected to measure in vitro anti-tumor activity of the rTRAIL mutant and the MMAE conjugate: TRAIL sensitive type (NCI-H460), TRAIL insensitive type (Hela), TRAIL resistant type (MCF-7) and normal cells (HEK293). All of these 4 types of cells had TRAIL death receptor on their surfaces.
(§2) Hereinafter, TRAIL sensitive type NCI-H460 cell was taken as an example to give detailed description of the test procedure, including the following steps:
(§3) (1) Digesting the NCI-H460 cells into individual cells, followed by diluting to 1×10^4 cells/mL, spreading the cells on 96-well plate (100 μL for each well), and culturing the cells for 24 hours under normal condition.
(§4) (2) Diluting N109C, N109C-vcMMAE and S96C-vcMMAE with culture medium respectively, and adding them into the cell plate with final concentrations of 32, 63, 125, 250, 500, 1000 ng/mL for serving as the test groups, while using standard TRAIL (114-281) as the positive control group, using the buffer (used for dissolving the test sample, diluted with the culture medium in a same manner) as the negative control group, and using the culture medium (without adding any solution) as the blank control group. All the control groups and test groups were tested in triplicate. […]

[2] = tested on: NCI-H460 cells; assay: Cell endocytosis of the conjugate by tumor cells (laser confocal); type: cell-based; settings: 1 μg/mL
Protocol: NCI-H460 cells were taken as an example to observe behaviors of rTRAIL mutant-vcMMAE conjugate in tumor cells by laser confocal technology, including the following steps:
a) A coverslip was immersed with 1M HCl and 70% ethanol, subjected to ultrasonic treatment for 30 min, washed for 5-6 times with double distilled water and sterilized for later use;
b) Well-sterilized coverslip was placed in 24-well plate, and cells were plated at 10^4 cells/well and cultured overnight at 37° C.;
c) Administration: N109C-vcMMAE and S96C-vcMMAE were diluted respectively to a final concentration of 1 μg/mL, and the cells were treated according to step d) at different time points (1st, 4th, 8th and 12th hour), while drug-free culture medium was used for the blank control group; d) The coverslip was washed with cold PBS for 3 times and then fixed with 4% paraformaldehyde for 10 min at room temperature; e) PBS was used to wash the coverslip for another 3 times; f) 0.1% Triton X-100 was added to permeabilize for 10 min at room temperature; g) 2% BSA was added to block for 30 min after 3 times washing with PBS; h) Primary antibody incubation: rabbit anti-human rTRAIL polyclonal antibody was diluted with 1% BSA/PBS to 1 μg/mL and incubated for 45 min at room temperature; i) Secondary antibody incubation: FITC-labeled goat anti-rabbit secondary antibody was diluted 500-fold with 1% BSA/PBS and incubated for 45 min at room temperature; j) Staining cell nucleus with DAPI: after PBS washing (3 times), DAPI diluted 1000-fold with PBS was added dropwise on each coverslip (it was appropriate to just cover the cells), and the coverslip was incubated for about 2 min at 25° C.; k) Mounting: after PBS washing, one drop of Anti-fade Fluorescence Mounting Medium was added on the coverslip, then the coverslip was placed upside down on a glass slide and then sealed with nail polish around the coverslip; l) Cofocal detection: the detection result was shown in FIG. 8.

[3] = tested on: MCF-7 cells; assay: In vitro anti-tumor activity (CCK-8 killing) on MCF-7 cells; type: cell-based; settings: MCF-7 (TRAIL resistant type), 32-1000 ng/mL, both low and high concentrations, 96 hours, FIG. 6
Source text: as §1, §2, §3, §4

[4] = tested on: NCI-H460 tumor-bearing mice; settings: athymic mice with NCI-H460 tumor; for distribution of fluorescence in mice: about 50 μg Cy5-labeled conjugate via tail vein
Protocol: N109C-vcMMAE was taken as an example, and the conjugate was tracked in real-time in mice by Fluorescent labeling method to observe tumor targeting ability of the conjugate.
Athymic mice weighing 20 g were selected and 10^7 NCI-H460 cells were injected subcutaneously in the armpit of one side of the forelegs.
Cy5, as a Near-IR-activated dye, was used as a fluorescent label, so as to facilitate the fluorescence to pass through animal skin and achieve the goal of real time vital observation. In terms of concrete method of Cy5 labeling, please refer to the instruction offered by the manufacturer (Lumiprobe).
200 μL sample containing about 50 μg Cy5-labeled conjugate was injected into the tumor-bearing mice via tail vein, while equal amount of normal saline was injected into the blank control group.
Small living animal imager (NightOWLN320) was used to observe distribution of fluorescence in mice every 24 hours. […] The mice were killed after 4th day, and heart, liver, spleen, lung, kidney and tumor tissues were isolated. […] The white arrow indicates tumor site.

B1: N109C-vcMMAE: rTRAIL N109C mutant trimer coupled via maleimide-modified valine-citrulline linker to 1-3 MMAE molecules (conjugate)
chain: TSEETISTVQEKQQCISPLVRERGPQRVAAHITGTRGRSNTLSSPNSKNEKALGRKINSWESSRSGHSFLSNLHLRNGELVIHEKGFYYIYSQTYFRFQEEIKENTKNDKQMVQYIYKYTSYPDPILLMKSARNSCWSKDAEYGLYSIYQGGIFELKENDRIFVSVTNEHLIDMDHEASFFGAFLVG
modifications: non-natural residues
notes: rTRAIL N109C mutant trimer coupled via maleimide-modified valine-citrulline linker to 1-3 MMAE molecules
[1]
  killing ability: stronger killing ability than S96C-vcMMAE
[2]; 1 hour after administration
  endocytosis by tumor cells (confocal): a lot of N109C-vcMMAE had entered the cells
[2]; 4 hours
  endocytosis by tumor cells (confocal): more and more N109C-vcMMAE entered the cells and began to aggregate slowly
[2]; 8 hours
  endocytosis by tumor cells (confocal): more aggregating points emerging inside the cells
[2]; 12 hours
  endocytosis by tumor cells and apoptosis (confocal): aggregating points inside the cells decreased gradually and cell apoptosis began to occur
[3]
  killing ability: stronger killing ability than S96C-vcMMAE
[4]; 3rd day
  distribution of fluorescence in mice: most of the fluorescence had gathered on tumor site
[4]; 4th day
  distribution of fluorescence in mice: only the tumor site emitted fluorescence
[4]; in vivo imaging over 4 days and isolated tissues
  tumor-targeting effect: excellent tumor-targeting effect
